Reference: PMC12109034
One block for each molecule: values may come before it.

Assays:
[1] = biological target: TdPP1-T243M (durum wheat)
[2] = biological target: TdPP1-H135A (durum wheat)
[3] = biological target: 6xHis::TdPP1a (durum wheat)
[4] = biological target: TdPP1-H135A (durum wheat); remark: listed apart in the source
[5] = biological target: 6xHis::TdPP1a (durum wheat); remark: listed apart in the source
[6] = biological target: TdPP1-H135A (durum wheat); remark: listed apart in the source

IC50 of inhibition of phosphatase activity (pNPP substrate, 37 °C, 1 μg enzyme) [1]: 35.6 nM
IC50 of inhibition of phosphatase activity (pNPP substrate, 37 °C, 1 μg enzyme) [2]: 37 nM
IC50 of inhibition of phosphatase activity (pNPP substrate, 37 °C, 1 μg enzyme) [3]: 32 nM
percent inhibition of phosphatase activity (pNPP) by TdRL1 at three concentrations; value at high concentrations [4]: 91%
percent inhibition of phosphatase activity (pNPP) at three TdRL1 concentrations; 59% at 26 nM (1:1 molar ratio), highest value at the higher concentration [5]: 89.7%
Molecule: 6xHis-MBP::TdRL1 (natural protein)

percent inhibition of phosphatase activity (pNPP) by At-I2 at three concentrations; highest at high concentration [6]: 100%
percent inhibition of phosphatase activity (pNPP) at three At-I2 concentrations; maximum at the highest concentration used [5]: 90.4%
B1: GST::At-I2 (natural protein)
chain: MTEPKRGRVQWDEANIVEIESNKPVRQKITEPKTPYHPMMDDDGSLSPRGRAFDECVDDMQRAEELRNVLNDAAASSSRNSSQGSGGGGWSSSDEEEEEADPMDQDEEGSGSGKNERFNAHRKAHYDEFRKVKELRSSGSFYEEEEEEDDGAKGSKSETTTNSRHTKGGNKELDATKTVSGTSSSSSPELI
